In paper PMC2175121:

Target: cell-surface GalNAcPTase (chicken (endogenous in E9 chick retina cells))

- inhibition of N-cadherin-mediated adhesion of E9 retina cells, RP at 20 μg/ml: 60%
Substance: Full-length neurocan fusion protein (RP) (natural protein)
